Molecular target: Sec14/PH module of NF1, NanoBRET construct
Assay: FRET or BRET

Chain of Sec14/PH module of NF1, NanoBRET construct (P21359 2-2839): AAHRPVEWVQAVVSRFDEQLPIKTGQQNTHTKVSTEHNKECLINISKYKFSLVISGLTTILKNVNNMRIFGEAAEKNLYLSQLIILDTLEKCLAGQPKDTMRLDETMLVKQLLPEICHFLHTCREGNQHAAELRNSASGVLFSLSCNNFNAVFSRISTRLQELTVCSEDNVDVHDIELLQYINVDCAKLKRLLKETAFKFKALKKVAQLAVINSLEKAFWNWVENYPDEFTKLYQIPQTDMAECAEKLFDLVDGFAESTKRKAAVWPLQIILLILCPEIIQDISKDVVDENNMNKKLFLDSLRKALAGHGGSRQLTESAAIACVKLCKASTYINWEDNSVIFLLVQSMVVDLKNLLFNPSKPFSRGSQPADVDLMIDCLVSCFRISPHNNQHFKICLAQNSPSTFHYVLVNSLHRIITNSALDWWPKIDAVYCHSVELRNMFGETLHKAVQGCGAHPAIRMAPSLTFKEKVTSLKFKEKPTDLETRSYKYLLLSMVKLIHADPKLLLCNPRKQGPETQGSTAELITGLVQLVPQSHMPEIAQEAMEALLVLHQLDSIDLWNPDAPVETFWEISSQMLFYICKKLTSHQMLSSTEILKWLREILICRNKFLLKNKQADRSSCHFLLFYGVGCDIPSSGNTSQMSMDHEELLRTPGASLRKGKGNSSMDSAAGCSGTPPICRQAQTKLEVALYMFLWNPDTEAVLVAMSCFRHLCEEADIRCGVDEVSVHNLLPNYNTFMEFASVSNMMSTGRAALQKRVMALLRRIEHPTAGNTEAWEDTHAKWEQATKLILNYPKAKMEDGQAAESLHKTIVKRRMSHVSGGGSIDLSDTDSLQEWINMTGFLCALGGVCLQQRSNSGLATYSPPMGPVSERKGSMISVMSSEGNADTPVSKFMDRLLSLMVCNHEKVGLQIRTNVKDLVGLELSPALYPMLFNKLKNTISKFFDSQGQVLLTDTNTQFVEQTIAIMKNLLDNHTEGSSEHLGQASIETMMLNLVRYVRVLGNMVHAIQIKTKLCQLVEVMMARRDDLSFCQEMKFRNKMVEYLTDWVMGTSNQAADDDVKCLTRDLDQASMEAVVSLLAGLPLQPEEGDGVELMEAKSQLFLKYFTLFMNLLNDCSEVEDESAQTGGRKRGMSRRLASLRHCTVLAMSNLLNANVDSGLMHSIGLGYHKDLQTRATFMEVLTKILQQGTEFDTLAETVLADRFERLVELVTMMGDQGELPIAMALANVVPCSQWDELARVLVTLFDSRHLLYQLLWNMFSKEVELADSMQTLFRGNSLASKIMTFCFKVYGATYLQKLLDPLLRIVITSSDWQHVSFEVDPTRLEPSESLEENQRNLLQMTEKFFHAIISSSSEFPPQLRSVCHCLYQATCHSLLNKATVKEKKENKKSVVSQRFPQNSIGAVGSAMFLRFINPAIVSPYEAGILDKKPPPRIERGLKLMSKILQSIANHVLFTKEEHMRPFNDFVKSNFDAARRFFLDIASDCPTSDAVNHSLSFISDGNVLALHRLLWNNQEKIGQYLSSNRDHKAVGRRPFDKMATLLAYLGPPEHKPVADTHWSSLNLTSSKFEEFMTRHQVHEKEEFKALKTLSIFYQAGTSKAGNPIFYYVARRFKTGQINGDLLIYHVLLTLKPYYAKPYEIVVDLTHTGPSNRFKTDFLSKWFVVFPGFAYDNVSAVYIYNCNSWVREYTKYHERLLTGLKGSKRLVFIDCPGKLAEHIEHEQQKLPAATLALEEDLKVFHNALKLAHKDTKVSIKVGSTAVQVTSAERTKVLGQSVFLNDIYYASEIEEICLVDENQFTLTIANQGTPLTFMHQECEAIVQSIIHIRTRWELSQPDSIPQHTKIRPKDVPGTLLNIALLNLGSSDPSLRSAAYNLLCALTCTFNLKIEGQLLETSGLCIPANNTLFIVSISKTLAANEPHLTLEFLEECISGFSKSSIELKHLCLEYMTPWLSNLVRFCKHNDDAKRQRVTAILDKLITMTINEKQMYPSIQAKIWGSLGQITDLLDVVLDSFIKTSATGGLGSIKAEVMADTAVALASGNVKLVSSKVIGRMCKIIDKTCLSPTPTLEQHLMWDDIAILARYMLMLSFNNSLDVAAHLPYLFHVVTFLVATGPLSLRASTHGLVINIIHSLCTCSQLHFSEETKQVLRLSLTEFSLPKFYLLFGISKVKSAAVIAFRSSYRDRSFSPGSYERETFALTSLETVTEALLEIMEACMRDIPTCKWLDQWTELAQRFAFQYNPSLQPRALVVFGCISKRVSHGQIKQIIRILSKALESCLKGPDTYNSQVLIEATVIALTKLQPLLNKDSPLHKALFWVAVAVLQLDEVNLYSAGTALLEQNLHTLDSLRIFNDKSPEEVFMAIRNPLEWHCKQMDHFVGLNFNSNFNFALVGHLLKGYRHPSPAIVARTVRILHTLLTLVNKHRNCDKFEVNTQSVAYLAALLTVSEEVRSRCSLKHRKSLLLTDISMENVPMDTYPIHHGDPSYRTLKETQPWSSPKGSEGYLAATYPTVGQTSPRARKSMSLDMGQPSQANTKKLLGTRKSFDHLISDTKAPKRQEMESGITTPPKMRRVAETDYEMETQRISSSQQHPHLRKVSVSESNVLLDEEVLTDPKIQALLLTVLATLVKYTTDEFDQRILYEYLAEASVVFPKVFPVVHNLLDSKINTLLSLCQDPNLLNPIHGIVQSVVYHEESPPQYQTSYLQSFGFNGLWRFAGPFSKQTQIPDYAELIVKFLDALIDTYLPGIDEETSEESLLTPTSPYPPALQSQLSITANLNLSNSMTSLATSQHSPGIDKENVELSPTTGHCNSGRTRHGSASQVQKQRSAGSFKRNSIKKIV

- 1/τ of the onset of the BRET signal after MOR activation: 0.67 s⁻¹
Substance: Gβγ, NanoBRET construct (from UniProt P62873 1-340; P59768 1-71) (complex)

Reference: article PMC5121064
